Measured values published in article PMC9543391, “ERp57 chaperon protein protects neuronal cells from Aβ‐induced toxicity” (Journal of Neurochemistry, 2022).
Entries after “also recorded” stand apart in the source; their conditions may differ.

Key:
Aβ25−35 = test: Thioflavin-T assay, Aβ25−35 aggregation (co-incubation); assay type: biochemical; conditions: 1:250 protein/Aβ25−35 molar ratio (4 μM / 1 mM), up to 72 h, 4°C, ThT read at 485 nm, n = 6
Description: The amyloid peptide Aβ25−35 was synthesized by conventional solid‐phase chemistry (Atherton & Sheppard, [1990]), and stored at −20°C. The peptide was resuspended in 1,1,1,3,3,3‐Hexafluoro‐2‐propanol (Sigma®, catalog number #105228), incubated for 1 h with gentle shaking at 4°C, then aliquoted and dried in speedVac for 20 min. The aliquots were stored under a vacuum glass bell. The day before being used, aliquots were resuspended in phosphate‐buffered saline (PBS) at a final concentration of 1 mM, incubated in a ultrasonic bath on ice for 30 min to induce aggregation, followed by gentle shaking at 4°C overnight. Aβ25−35 was diluted in culture medium at a final concentration of 30 μM for cell treatments. Aggregation of Aβ25−35 in the presence of ERp57 was obtained as follows: dried aliquots of Aβ25−35 were resuspended in PBS. […]
Thioflavin‐T assay was used to assess the aggregation of the Aβ25−35. […] The assay was performed using a spectrofluorometer Spex Fluoromax® at 25°C; the excitation wavelength was set at 440 nm (5 nm band width) and the fluorescence was measured between 450 and 520 nm (5 nm band width) (Francioso et al., [2020]).

pre‐aggregated Aβ25−35 = test: Thioflavin-T assay, reversal of pre-aggregated Aβ25−35; assay type: biochemical; conditions: Aβ25−35 aggregated alone 24 h, then 72 h with increasing concentrations of ERp57; n = 3
Description: Thioflavin‐T assay was used to assess the aggregation of the Aβ25−35. Thioflavin‐T (catalog number #T3516) was prepared in glycine buffer (0.05 M, pH 8.5) (catalog number #G8898), to a final concentration of 5 μM, in order to be saturated by Aβ25−35 (10 μM). Aβ25−35 was aggregated either alone or in the presence of 0.04 μM ERp57 or GST recombinant protein (in a 1:250 ratio). The assay was performed using a spectrofluorometer Spex Fluoromax® at 25°C; the excitation wavelength was set at 440 nm (5 nm band width) and the fluorescence was measured between 450 and 520 nm (5 nm band width) (Francioso et al., [2020]).
Having ascertained the ability of ERp57 to block the aggregation process, we wondered if the protein was able to reverse a preformed amyloid fibril into oligomeric/monomeric forms. To understand this, we aggregated Aβ25−35 alone for 24 h and then incubated it for 72 h in the presence of increasing concentrations of ERp57, assessing every 24 h the state of aggregation by thioflavin T assay (Figure 5c). […] Probably this phenomenon could be because of the fact that the presence of a protein capable of interacting with Aβ25−35 (given the previous experiments) can favor to the maintenance of Aβ25−35 in solution, facilitating the process of aggregation. […]

SH‐SY5Y cells = test: MTT cell viability assay; assay type: cell-based, human; conditions: MTT, n = 4
Description: For the cell viability experiments, 96‐well plates were seeded with 10 000 cells/well. After 24 h, cells were treated with 30 μM Aβ25−35 aggregated for 72 h in the presence or in the absence of 0.12 μM of ERp57 or GST recombinant proteins (in a 1:250 ratio), in a final volume of 150 μl per well. Plates were incubated for 24 h in an incubator at 37°C, 5% of CO2, and 99% RH. Thereafter, 20 μl of (3‐[4,5‐Dimethylthiazol‐2‐yl]‐2,5‐Diphenyltetrazolium Bromide) (MTT) dye (stock solution 5 mg/ml in PBS) (catalog number #M2003) was added to the wells and incubated for additional 2 h at 37°C and 5% CO2. Water‐insoluble formazan crystals were dissolved in 100 μl of DMSO (catalog number #472301). For spectrophotometric measurements, Appliscan® plate reader (Thermo scientific) was used at the wavelength 570 nm, with reference set at 690 nm.

α‐synuclein = conditions: 1:50 molar ratio; ref Serrano et al., [2020]; cited from earlier work
Excerpt: We thus hypothesize that the mechanism by which ERp57 exerts its neuroprotective action resides in ERp57 impairment of peptide aggregation, rather than in disaggregation of existing fibrils. The inhibition of the aggregation was induced by low amounts of ERp57 protein, present in the reaction mixture in a very low molar ratio compared to the peptide (1:250), in line with the experiments conducted by Serr ...

c99 fragment of APP = conditions: c99 generated by β-secretase; ref Selivanova et al., [2007]; cited from earlier work
Excerpt: (§1) As previously reported (Williams, [2006]), it is known that ERp57 together with calreticulin and calnexin forms a complex capable of interacting with glycoproteins, including APP, at the […] level, and therefore it can be hypothesized that the contact regions between ERp57 and APP are maintained at least in part also by Aβ, despite the cuts suffered by the secretases.

full‐length APP = conditions: permeabilized cells; ref Selivanova et al., [2007]; cited from earlier work
Excerpt: as §1

Aβ peptide = conditions: cerebrospinal fluid of healthy people; ref Erickson et al., [2005]; cited from earlier work
Excerpt: ERp57 is an endoplasmic reticulum disulfide isomerase which modulates folding of newly synthesized glycoproteins by recognizing and interacting with peptides or incorrectly folded proteins, thereby promoting formation of disulfide bonds and correct protein folding (Torres et al., [2015]). Conversely, Aβ is a small peptide that, because of its intrinsic characteristics, tends to aggregate and to escape the ER‐associated degradation process (ERAD) (Holtzman, [2013]). Eventually, monomeric Aβ is released out of the cell and begins its slow aggregation into fibrils that will form the template for ...

B1: ERp57: thiol oxidoreductase with Protein Disulfide Isomerase activity; human recombinant PDIA3 expressed in E. coli (protein)
chain: SDVLELTDDNFESRISDTGSAGLMLVEFFAPWCGHCKRLAPEYEAAATRLKGIVPLAKVDCTANTNTCNKYGVSGYPTLKIFRDGEEAGAYDGPRTADGIVSHLKKQAGPASVPLRTEEEFKKFISDKDASIVGFFDDSFSEAHSEFLKAASNLRDNYRFAHTNVESLVNEYDDNGEGIILFRPSHLTNKFEDKTVAYTEQKMTSGKIKKFIQENIFGICPHMTEDNKDLIQGKDLLIAYYDVDYEKNAKGSNYWRNRVMMVAKKFLDAGHKLNFAVASRKTFSHELSDFGLESTAGEIPVVAIRTAKGEKFVMQEEFSRDGKALERFLQDYFDGNLKRYLKSEPIPESNDGPVKVVVAENFDEIVNNENKDVLIEFYAPWCGHCKNLEPKYKELGEKLSKDPNIVIAKMDATANDVPSPYEVRGFPTIYFSPANKKLNPKKYEGGRELSDFISYLQREATNPPVIQEEKPKKKKKAQEDL
In the case of B1, the “effect on Aβ25−35 aggregation (ThT fluorescence)” value (Aβ25−35) is reported as “a marked reduction in the fluorescence signal; also recorded: completely blocks this process; also recorded: strongly reduced the aggregation of the peptide”, the “ThT fluorescence intensity of pre-aggregated Aβ25−35” value (pre‐aggregated Aβ25−35) is reported as “increased in a dose‐dependent manner” and the “reversal of preformed amyloid” value (pre‐aggregated Aβ25−35) is reported as “not able to reverse the amyloid aggregation; also recorded: not able to disassemble pre‐aggregated Aβ25−35; also recorded: fails to disaggregate a fibril”. For the same molecule, the “cell viability (with Aβ25−35)” value (SH‐SY5Y cells; 30 μM Aβ25−35 aggregated 72 h with 0.12 μM protein (1:250), 24 h treatment) was “counteracts the toxic effects of Aβ25−35 and restores cellular viability; also recorded: significant increase in cell viability; also recorded: their viability was preserved”, the “cell viability (protein alone)” value (SH‐SY5Y cells; protein alone, without Aβ25−35, 24 h) was “no effect on cell viability” and the “effect on α-synuclein aggregation” value (α‐synuclein) was “able to reduce the aggregation of α‐synuclein in a very efficient manner”. For the same molecule, the “interaction with c99 fragment of APP” value (c99 fragment of APP) was “does not interact with the c99 fragment of APP”, the “interaction with full-length APP” value (full‐length APP) was “interacts with full‐length APP” and the “complex of ERp57 with Aβ” value (Aβ peptide) was “linked to Aβ in the cerebrospinal fluid of healthy people”.
